Test results from PMC10397247.
Values belong to the binder of their own block, whether it stands above or below them.

Assays:
[1] = biological target: T1, 4H3907-bN; assay: two-hybrid library CCNG1;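 also: natural log of median RNA to DNA barcode read ratio; higher means stronger binding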
T1 chain: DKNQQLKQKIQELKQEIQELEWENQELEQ

[2] = biological target: T2, 4H3961-bN; assay: two-hybrid library CCNG1;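 also: natural log of median RNA to DNA barcode read ratio; higher means stronger binding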
T2 chain: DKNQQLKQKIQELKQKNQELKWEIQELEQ

[3] = biological target: T3, 4H344-bN; assay: two-hybrid library CCNG1;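 also: natural log of median RNA to DNA barcode read ratio; higher means stronger binding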
T3 chain: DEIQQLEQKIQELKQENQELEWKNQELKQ

[4] = biological target: T4, 4H363-bN; assay: two-hybrid library CCNG1;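 also: natural log of median RNA to DNA barcode read ratio; higher means stronger binding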
T4 chain: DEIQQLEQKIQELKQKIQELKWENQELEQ

[5] = biological target: T5, 4H470-bN; assay: two-hybrid library CCNG1;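 also: natural log of median RNA to DNA barcode read ratio; higher means stronger binding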
T5 chain: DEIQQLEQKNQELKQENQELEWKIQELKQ

[6] = biological target: T6, 4H2745-bN; assay: two-hybrid library CCNG1;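 also: natural log of median RNA to DNA barcode read ratio; higher means stronger binding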
T6 chain: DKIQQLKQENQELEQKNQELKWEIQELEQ

[7] = biological target: T7, 4H2568-bN; assay: two-hybrid library CCNG1
T7 chain: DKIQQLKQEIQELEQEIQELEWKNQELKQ

[8] = biological target: T8, 4H2619-bN; assay: two-hybrid library CCNG1
T8 chain: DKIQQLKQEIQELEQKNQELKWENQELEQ

[9] = biological target: T9, 4H968-bA; assay: two-hybrid library CCNG1
T9 chain: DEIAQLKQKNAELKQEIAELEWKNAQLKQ

[10] = biological target: T10, 4H908-bA; assay: two-hybrid library CCNG1
T10 chain: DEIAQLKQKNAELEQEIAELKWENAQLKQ

[11] = biological target: T11, 4H967-bA; assay: two-hybrid library CCNG1
T11 chain: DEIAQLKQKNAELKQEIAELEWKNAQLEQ

[12] = biological target: T12, 4H754-bA; assay: two-hybrid library CCNG1
T12 chain: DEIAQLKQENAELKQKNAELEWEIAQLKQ

[13] = biological target: T13, 4H780-bA; assay: two-hybrid library CCNG1
T13 chain: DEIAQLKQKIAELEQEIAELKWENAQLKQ

[14] = biological target: T14, 4H908-bN; assay: two-hybrid library CCNG1
T14 chain: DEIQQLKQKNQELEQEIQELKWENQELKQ

[15] = biological target: T15, 4H918-bA; assay: two-hybrid library CCNG1
T15 chain: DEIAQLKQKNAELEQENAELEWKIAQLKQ

[16] = biological target: T16, 4H883-bA; assay: two-hybrid library CCNG1
T16 chain: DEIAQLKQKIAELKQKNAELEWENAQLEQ

[17] = biological target: T17, 4H855-bA; assay: two-hybrid library CCNG1
T17 chain: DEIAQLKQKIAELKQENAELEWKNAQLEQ

[18] = biological target: T18, 4H953-bA; assay: two-hybrid library CCNG1
T18 chain: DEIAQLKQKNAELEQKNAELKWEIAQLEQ

[19] = biological target: T19, 4H797-bA; assay: two-hybrid library CCNG1
T19 chain: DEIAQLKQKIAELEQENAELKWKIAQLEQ

[20] = biological target: T20, P11mS; assay: two-hybrid library CCNG1
T20 chain: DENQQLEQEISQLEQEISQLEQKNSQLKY

[21] = biological target: T21, 4H1629-bH; assay: two-hybrid library CCNG1
T21 chain: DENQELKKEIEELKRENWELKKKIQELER

[22] = biological target: T22, 4H3129-bH; assay: two-hybrid library CCNG1
T22 chain: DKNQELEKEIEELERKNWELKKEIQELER

[23] = biological target: T23, 4H850-bH; assay: two-hybrid library CCNG1
T23 chain: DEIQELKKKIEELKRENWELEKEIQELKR

[24] = biological target: T24, 4H1710-bH; assay: two-hybrid library CCNG1
T24 chain: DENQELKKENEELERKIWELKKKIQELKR

[25] = biological target: T25, 4H1393-bH; assay: two-hybrid library CCNG1
T25 chain: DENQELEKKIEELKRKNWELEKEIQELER

[26] = biological target: T26, 4H3817-bH; assay: two-hybrid library CCNG1
T26 chain: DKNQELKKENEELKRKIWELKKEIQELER

[27] = biological target: T27, 4H570-bH; assay: two-hybrid library CCNG1
T27 chain: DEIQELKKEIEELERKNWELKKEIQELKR

[28] = biological target: T28, 4H3172-bH; assay: two-hybrid library CCNG1
T28 chain: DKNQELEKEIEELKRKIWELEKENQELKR

[29] = biological target: T29, 4H1804-bH; assay: two-hybrid library CCNG1
T29 chain: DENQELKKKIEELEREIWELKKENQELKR

[30] = biological target: T30, 4H3638-bH; assay: two-hybrid library CCNG1
T30 chain: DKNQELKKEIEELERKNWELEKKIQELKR

[31] = biological target: T31, 4H906-bH; assay: two-hybrid library CCNG1
T31 chain: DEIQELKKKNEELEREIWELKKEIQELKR

[32] = biological target: T32, 4H3628-bA; assay: two-hybrid library CCNG1
T32 chain: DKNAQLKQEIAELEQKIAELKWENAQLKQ

[33] = biological target: T33, 4H1449-bH; assay: two-hybrid library CCNG1
T33 chain: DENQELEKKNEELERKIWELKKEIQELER

[34] = biological target: T34, 4H619-bH; assay: two-hybrid library CCNG1
T34 chain: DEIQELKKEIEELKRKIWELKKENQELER

[35] = biological target: T35, 4H3414-bH; assay: two-hybrid library CCNG1
T35 chain: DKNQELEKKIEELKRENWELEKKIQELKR

[36] = biological target: T36, 4H3974-bH; assay: two-hybrid library CCNG1
T36 chain: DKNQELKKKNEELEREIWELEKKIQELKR

[37] = biological target: T37, 4H584-bH; assay: two-hybrid library CCNG1
T37 chain: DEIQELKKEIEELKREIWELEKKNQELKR

[38] = biological target: T38, 4H2702-bA; assay: two-hybrid library CCNG1
T38 chain: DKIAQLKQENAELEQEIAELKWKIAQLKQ

[39] = biological target: T39, APC222-AA; assay: two-hybrid library CCmax; settings: mean of both orientations
T39 chain: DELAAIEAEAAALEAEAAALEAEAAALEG

[40] = biological target: T40, APC2257-AA; assay: two-hybrid library CCmax; settings: mean of both orientations
T40 chain: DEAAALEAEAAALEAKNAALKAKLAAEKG

[41] = biological target: T41, APC2543-AA; assay: two-hybrid library CCmax; settings: mean of both orientations
T41 chain: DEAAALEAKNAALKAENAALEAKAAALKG

[42] = biological target: T42, APC542-AA; assay: two-hybrid library CCmax; settings: mean of both orientations
T42 chain: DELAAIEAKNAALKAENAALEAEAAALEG

[43] = biological target: T43, APC8516-AA; assay: two-hybrid library CCmax; settings: mean of both orientations
T43 chain: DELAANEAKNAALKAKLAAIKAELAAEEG

[44] = biological target: T44, APC6088-AA; assay: two-hybrid library CCmax; settings: mean of both orientations
T44 chain: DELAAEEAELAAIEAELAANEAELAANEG

[45] = biological target: T45, APC3354-AA; assay: two-hybrid library CCmax; settings: mean of both orientations
T45 chain: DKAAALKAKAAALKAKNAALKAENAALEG

[46] = biological target: T46, APC2556-AA; assay: two-hybrid library CCmax; settings: mean of both orientations
T46 chain: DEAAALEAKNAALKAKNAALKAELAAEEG

[47] = biological target: T47, APC5531-AA; assay: two-hybrid library CCmax; settings: mean of both orientations
T47 chain: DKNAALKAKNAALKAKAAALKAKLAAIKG

[48] = biological target: T48, APC2811-AA; assay: two-hybrid library CCmax; settings: mean of both orientations
T48 chain: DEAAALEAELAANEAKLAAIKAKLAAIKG

[49] = biological target: T49, APC9182-AA; assay: two-hybrid library CCmax; settings: mean of both orientations
T49 chain: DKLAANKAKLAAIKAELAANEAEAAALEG

[50] = biological target: T50, APC1987-AA; assay: two-hybrid library CCmax; settings: mean of both orientations
T50 chain: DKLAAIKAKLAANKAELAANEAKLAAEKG

[51] = biological target: T51, APC9141-AA; assay: two-hybrid library CCmax; settings: mean of both orientations
T51 chain: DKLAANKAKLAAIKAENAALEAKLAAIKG

[52] = biological target: T52, APC2724-AA; assay: two-hybrid library CCmax; settings: mean of both orientations
T52 chain: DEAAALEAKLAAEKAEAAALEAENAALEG

[53] = biological target: T53, APC2981-AA; assay: two-hybrid library CCmax; settings: mean of both orientations
T53 chain: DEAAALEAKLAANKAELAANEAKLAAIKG

[54] = biological target: T54, APC2375-AA; assay: two-hybrid library CCmax; settings: mean of both orientations
T54 chain: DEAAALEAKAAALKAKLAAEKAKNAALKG

[55] = biological target: T55, APC7524-AA; assay: two-hybrid library CCmax; settings: mean of both orientations
T55 chain: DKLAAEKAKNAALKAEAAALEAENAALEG

[56] = biological target: T56, APC9806-AA; assay: two-hybrid library CCmax; settings: mean of both orientations
T56 chain: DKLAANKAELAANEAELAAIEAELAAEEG

[57] = biological target: T57, APC1916-AA; assay: two-hybrid library CCmax
T57 chain: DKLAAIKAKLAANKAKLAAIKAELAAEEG

[58] = biological target: T58, APC2474-AA; assay: two-hybrid library CCmax; settings: mean of both orientations
T58 chain: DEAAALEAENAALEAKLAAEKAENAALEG

[59] = biological target: T59, APC8401-AA; assay: two-hybrid library CCmax; settings: mean of both orientations
T59 chain: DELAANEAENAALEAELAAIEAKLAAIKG

[60] = biological target: T60, APC3881-AA; assay: two-hybrid library CCmax; settings: mean of both orientations
T60 chain: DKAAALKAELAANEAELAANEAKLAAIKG

[61] = biological target: T61, APC9291-AA; assay: two-hybrid library CCmax; settings: mean of both orientations
T61 chain: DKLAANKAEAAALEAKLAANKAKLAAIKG

[62] = biological target: T62, APC5009-AA; assay: two-hybrid library CCmax; settings: mean of both orientations
T62 chain: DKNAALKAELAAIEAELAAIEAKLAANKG

[63] = biological target: T63, APC4100-AA; assay: two-hybrid library CCmax; settings: mean of both orientations
T63 chain: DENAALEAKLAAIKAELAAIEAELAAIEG

[64] = biological target: T64, APC3265-AA; assay: two-hybrid library CCmax; settings: mean of both orientations
T64 chain: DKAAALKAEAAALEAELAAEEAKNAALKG

[65] = biological target: T65, APC3323-AA; assay: two-hybrid library CCmax; settings: mean of both orientations
T65 chain: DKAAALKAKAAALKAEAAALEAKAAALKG

[66] = biological target: T66, APC4336-AA; assay: two-hybrid library CCmax; settings: mean of both orientations
T66 chain: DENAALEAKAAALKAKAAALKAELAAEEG

Binder: DEIAQLKQENAELKQKNAELEWEIAQLKQ [4H754-bA]
- interaction score [9]: -0.368
- interaction score [10]: -0.879
- interaction score [11]: -0.575
- interaction score [12]: 1.57
- interaction score [13]: -1.48
- interaction score [14]: -0.94
- interaction score [15]: -0.579
- interaction score [16]: -0.374
- interaction score [17]: -0.914
- interaction score [18]: 0.496
- interaction score [19]: -0.233
- interaction score [20]: -1.53

Binder: DKLAAIKAKLAANKAKLAAIKAELAAEEG [APC1916-AA]
- interaction score [39]: -1.45
- interaction score [40]: -1.73
- interaction score [41]: -1.62
- interaction score [42]: -1.62
- interaction score [43]: -1.83
- interaction score [44]: -1.82
- interaction score [45]: -1.8
- interaction score [46]: -1.71
- interaction score [47]: -1.75
- interaction score [48]: -2.01
- interaction score [49]: -1.82
- interaction score [50]: -2.06
- interaction score [51]: -1.7
- interaction score [52]: -1.83
- interaction score [53]: -1.78
- interaction score [54]: -1.88
- interaction score [55]: -1.57
- interaction score [56]: -2.04
- interaction score [57]: -1.89
- interaction score [58]: -1.31
- interaction score [59]: -0.817
- interaction score [60]: -1.78
- interaction score [61]: -2.08
- interaction score [62]: -0.00974
- interaction score [63]: 0.352
- interaction score [64]: -1.75
- interaction score [65]: -1.94
- interaction score [66]: -1.64

Other lines, results leading:

- interaction score [1]: 0.402
- interaction score [2]: 1.52
- interaction score [3]: -0.22
- interaction score [4]: 0.932
- interaction score [5]: 0.618
- interaction score [6]: -1.2
- interaction score [7]: 0.798
- interaction score [8]: -0.118
Binder: DKIQQLKQEIQELEQEIQELEWKNQELKQ [4H2568-bN]

- interaction score [21]: -0.557
- interaction score [22]: 0.0961
- interaction score [23]: 0.00584
- interaction score [24]: -0.501
- interaction score [25]: -0.111
- interaction score [26]: -0.474
- interaction score [27]: -0.453
- interaction score [28]: -0.553
- interaction score [29]: -1.63
- interaction score [30]: 1.2
- interaction score [31]: -1.05
- interaction score [32]: -0.789
- interaction score [33]: -2.77
- interaction score [34]: -1.79
- interaction score [35]: 1
- interaction score [36]: 0.0308
- interaction score [37]: -0.3
- interaction score [38]: -2.15
Binder: DENQELEKKIEELKRKNWELEKEIQELER [4H1393-bH]
